Article PMC3954793, “SHP-2 Binds to Caveolin-1 and Regulates Src Activity via Competitive Inhibition of CSK in Response to H2O2 in Astrocytes” (PLoS ONE, 2014)
Ends that are not written are not given here.

What was measured:
[1] = biological target: T1, recombinant SHP-2 protein ( (human SHP-2 cloned for the …, UniProt Q06124 1-593)); assay: bead-based flow cytometric binding assay; caveolin-1 (1–50) peptide conjugated to carboxyl beads with EDC; incubated with recombinant CSK or SHP-2 protein (1–10 µg) for 1 h at RT; detected with anti-CSK or anti-SHP-2 and fluorescent secondary antibody; conditions: both partners purified
T1 construct: SHP-2 (PTPN11); the in-house construct holds the protein coding region of human SHP-2 in pGEX-6P-1
T1 sequence (looked up): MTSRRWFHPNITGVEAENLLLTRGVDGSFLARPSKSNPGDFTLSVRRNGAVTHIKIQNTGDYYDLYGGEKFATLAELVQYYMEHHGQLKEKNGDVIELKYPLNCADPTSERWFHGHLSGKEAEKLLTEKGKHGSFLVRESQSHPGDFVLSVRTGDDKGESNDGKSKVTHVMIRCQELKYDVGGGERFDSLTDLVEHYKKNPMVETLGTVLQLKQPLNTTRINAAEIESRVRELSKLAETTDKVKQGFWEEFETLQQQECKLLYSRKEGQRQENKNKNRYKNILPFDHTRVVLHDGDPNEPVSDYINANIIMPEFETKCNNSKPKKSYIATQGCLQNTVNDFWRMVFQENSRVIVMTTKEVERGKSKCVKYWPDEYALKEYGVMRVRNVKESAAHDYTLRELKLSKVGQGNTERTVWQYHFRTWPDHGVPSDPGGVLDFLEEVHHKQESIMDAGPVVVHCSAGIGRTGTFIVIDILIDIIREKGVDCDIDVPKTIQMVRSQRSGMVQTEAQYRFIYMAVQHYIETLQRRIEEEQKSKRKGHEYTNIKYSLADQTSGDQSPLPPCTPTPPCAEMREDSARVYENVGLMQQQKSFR

recombinant CSK protein = biological target: T2, recombinant CSK protein ( (human CSK cloned for the …, UniProt P41240 1-450)); assay: as above; conditions: both partners purified
T2 construct: CSK; the in-house construct holds the protein coding region of human CSK in pGEX-6P-1
T2 sequence (P41240 whole entry): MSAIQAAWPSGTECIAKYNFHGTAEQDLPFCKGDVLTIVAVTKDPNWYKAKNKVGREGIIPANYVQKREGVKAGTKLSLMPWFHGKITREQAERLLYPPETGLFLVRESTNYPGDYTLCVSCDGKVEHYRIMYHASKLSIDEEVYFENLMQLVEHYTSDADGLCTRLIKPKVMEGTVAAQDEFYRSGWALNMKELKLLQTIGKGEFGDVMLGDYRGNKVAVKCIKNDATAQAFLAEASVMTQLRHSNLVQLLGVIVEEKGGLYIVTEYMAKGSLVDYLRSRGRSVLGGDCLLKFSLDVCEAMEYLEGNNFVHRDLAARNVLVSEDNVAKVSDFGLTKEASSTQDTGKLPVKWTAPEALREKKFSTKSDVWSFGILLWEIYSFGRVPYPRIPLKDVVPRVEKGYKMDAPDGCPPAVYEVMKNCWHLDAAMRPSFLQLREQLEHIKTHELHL

B1: 1–50 mer caveolin-1 peptide (peptide, UniProt Q03135 1-50, looked up)
peptide: MSGGKYVDSEGHLYTVPIREQGNIYKPNNKAMADELSEKQVYDAHTKEID
modifications: not fully specified
notes: caveolin-1 residues 1-50, fifty-amino acid-long synthetic peptide; Conjugated to carboxyl beads with EDC; also called caveolin-1 peptide (1–50); p-caveolin-1 peptide; source: synthetic peptide (PEPTRON)
binding result [1]: binds
binding result (recombinant CSK protein): binds
